In patent publication US20100286027A1, “ANTI-BACTERIAL COMPOSITIONS” (priority 2008, published 2010):
Converted amounts (≈) assume the structure as drawn.

Experiments:
[1] = tested on: E. coli NB27005* (TolC efflux pump mutant); experiment: MIC against aerobic gram negative bacteria, efflux pump mutant; assay type: cell-based, Escherichia coli
[2] = tested on: P. aeruginosa NB52019; experiment: MIC against aerobic gram negative bacteria; assay type: cell-based, Pseudomonas aeruginosa
[3] = tested on: H. influenzae NB65027-CDS0021* (TolC efflux pump mutant); experiment: MIC against aerobic gram negative bacteria, efflux pump mutant; assay type: cell-based, Haemophilus influenzae
[4] = tested on: P. aeruginosa NB52020* (mexAB/oprM efflux pump mutant); experiment: as above; assay type: cell-based, Pseudomonas aeruginosa
[5] = tested on: E. coli NB27004; experiment: MIC against aerobic gram negative bacteria; assay type: cell-based, Escherichia coli
[6] = tested on: H. influenzae NB65027; experiment: microbe, parasite or virus in culture; settings: Haemophilus influenzae, NB65027, read-out: minimal inhibitory concentration (MIC)
[7] = tested on: Bacillus Subtilis (6633); experiment: BacTiter-Glo bacterial ATP content viability assay; settings: Bacillus Subtilis (6633), gram +; +/− SD, n = 3; >100 = activity detected but <50% inhibition
[8] = tested on: Klebsiella pneumoniae (700603); experiment: BacTiter-Glo bacterial ATP content viability assay; settings: gram −, +/− SD, n = 3, >100 = activity detected but <50% inhibition
[9] = tested on: L. monocytogenes; experiment: Bacterial growth inhibition (FIG. 15); assay type: cell-based, Listeria monocytogenes; settings: FIG. 15 Panel C
[10] = tested on: Stenotrophomonas maltophilia (17666); experiment: BacTiter-Glo bacterial ATP content viability assay; settings: gram −, +/− SD, n = 3, >100 = activity detected but <50% inhibition
[11] = tested on: Salmonella choleraesuis (13076); experiment: BacTiter-Glo bacterial ATP content viability assay; settings: gram −, +/− SD, n = 3, >100 = activity detected but <50% inhibition
[12] = tested on: lawn of the indicated bacteria; experiment: Agar diffusion assay; settings: FIG. 11 Panel D; 0.5 mg/ml in sterile PBS per well
[13] = tested on: H. influenzae NB65027; settings: aerobic gram negative
[14] = tested on: Escherichia coli (8739); experiment: BacTiter-Glo bacterial ATP content viability assay; settings: gram −, +/− SD, n = 3, >100 = activity detected but <50% inhibition
[15] = tested on: Enterococcus faecalis (29212); experiment: BacTiter-Glo bacterial ATP content viability assay; settings: Enterococcus faecalis (29212), gram +; +/− SD, n = 3; >100 = activity detected but <50% inhibition
[16] = tested on: Escherichia coli (25922); experiment: BacTiter-Glo bacterial ATP content viability assay; settings: gram −, +/− SD, n = 3, >100 = activity detected but <50% inhibition
[17] = tested on: Streptococcus pneumoniae (49619); experiment: BacTiter-Glo bacterial ATP content viability assay; settings: gram +, +/− SD, n = 3, >100 = activity detected but <50% inhibition
[18] = tested on: Listeria monocytogenes (7644); experiment: BacTiter-Glo bacterial ATP content viability assay; settings: Listeria monocytogenes (7644), gram +; +/− SD, n = 3; >100 = activity detected but <50% inhibition
[19] = tested on: E. coli; experiment: Bacterial growth inhibition (FIG. 15); assay type: cell-based, Escherichia coli; settings: FIG. 15 Panel B
[20] = tested on: Staphylococcus aureus (29213); experiment: BacTiter-Glo bacterial ATP content viability assay; settings: Staphylococcus aureus (29213), gram +; +/− SD, n = 3; >100 = activity detected but <50% inhibition
[21] = tested on: Pseudomonas aeruginosa (27853); experiment: BacTiter-Glo bacterial ATP content viability assay; settings: gram −, +/− SD, n = 3, >100 = activity detected but <50% inhibition
[22] = Escherichia coli, read-out: minimal inhibitory concentration (MIC)
[23] = Pseudomonas aeruginosa, read-out: minimal inhibitory concentration (MIC)

CN(C)[C@@H]1C(O)=C(C(N)=O)C(=O)[C@@]2(O)C(O)=C3C(=O)c4c(O)cccc4[C@@](C)(O)[C@H]3C[C@@H]12 [Tetracycline, reference compound]
MIC [1, 22]: 0.5 µg/mL (≈ 1.13 µM) | MIC [2, 23]: 32 µg/mL (≈ 72 µM) | MIC ([3]; Haemophilus influenzae, read-out: minimal inhibitory concentration (MIC)): 0.5 µg/mL (≈ 1.13 µM) | MIC [4, 23]: 1 µg/mL (≈ 2.25 µM) | MIC [5, 22]: 4 µg/mL (≈ 9 µM) | MIC [6]: 0.5 µg/mL (≈ 1.13 µM)

B1: Nod1: purified recombinant LRR domain of Nod1; human NOD1-LRR is SEQ ID NO: 4 (protein, listed as Homo sapiens)
chain: NKDHFQFTNLFLCGLLSKAKQKLLRHLVPAAALRRKRKALWAHLFSSLRGYLKSLPRVQVESFNQVQAMPTFIWMLRCIYETQSQKVGQLAARGICANYLKLTYCNACSADCSALSFVLHHFPKRLALDLDNNNLNDYGVRELQPCFSRLTVLRLSVNQITDGGVKVLSEELTKYKIVTYLGLYNNQITDVGARYVTKILDECKGLTHLKLGKNKITSEGGKYLALAVKNSKSISEVGMWGNQVGDEGAKAFAEALRNHPSLTTLSLASNGISTEGGKSLARALQQNTSLEILWLTQNELNDEVAESLAEMLKVNQTLKHLWLIQNQITAKGTAQLADALQSNTGITEICLNGNLIKPEEAKVYEDEKRIICF
antibacterial activity by bacterial ATP content (IC50), [LRR domain] [7]: 15.5 +/− 12.0 microgram/ml | antibacterial activity by bacterial ATP content (IC50), [LRR domain] [8]: 30.8 +/− 4.9 microgram/ml | L. monocytogenes growth [9]: inhibited | antibacterial activity by bacterial ATP content (IC50), [LRR domain] [10]: >100 microgram/ml | antibacterial activity by bacterial ATP content (IC50), [LRR domain] [11]: >100 microgram/ml | minimal inhibitory concentration (MIC) ([1]; aerobic gram negative, E. coli NB27005*, TolC efflux pump mutant strain): 32 microgram/ml | anti-bacterial activity by agar diffusion assay [12]: Anti-bacterial activity | minimal inhibitory concentration (MIC) [2]: >128 microgram/ml | minimal inhibitory concentration (MIC) ([3]; aerobic gram negative, H. influenzae NB65027-CDS0021*, TolC efflux pump mutant strain): 4 microgram/ml | minimal inhibitory concentration (MIC) [13]: >128 microgram/ml | antibacterial activity by bacterial ATP content (IC50), [LRR domain] [14]: 29.0 +/− 2.8 microgram/ml | antibacterial activity by bacterial ATP content (IC50), [LRR domain] [15]: >100 microgram/ml | minimal inhibitory concentration (MIC) ([4]; aerobic gram negative, P. aeruginosa NB52020*, mexAB/oprM efflux pump mutant strain): >128 microgram/ml | minimal inhibitory concentration (MIC) [5]: >128 microgram/ml | antibacterial activity by bacterial ATP content (IC50), [LRR domain] [16]: >100 microgram/ml | antibacterial activity by bacterial ATP content (IC50), [LRR domain] [17]: 13.5 +/− 4.9 microgram/ml | antibacterial activity by bacterial ATP content (IC50), [LRR domain] [18]: 32.0 +/− 2.1 microgram/ml | E. coli growth [19]: inhibited | antibacterial activity by bacterial ATP content (IC50), [LRR domain] [20]: 111.3 +/− 13.0 microgram/ml | antibacterial activity by bacterial ATP content (IC50), [LRR domain] [21]: >100 microgram/ml
